Experimental data published in patent US20240197828A1, “Chimeric molecule to treat sepsis and other inflammatory conditions” (THE FEINSTEIN INSTITUTES FOR MEDICAL RESEARCH, priority 2022, published 2024).

Target: T1, rhCIRP (Homo sapiens, UniProt Q14011)
T1 sequence (Q14011 1-172): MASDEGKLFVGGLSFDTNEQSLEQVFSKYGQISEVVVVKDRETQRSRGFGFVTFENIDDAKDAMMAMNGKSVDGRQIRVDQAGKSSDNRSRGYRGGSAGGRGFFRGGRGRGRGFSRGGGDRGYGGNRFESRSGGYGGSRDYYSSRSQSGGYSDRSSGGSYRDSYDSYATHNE
Assay: Biacore binding of recombinant human proteins (rhCIRP and rhMFG-E8)
Details: read-out: KD between rhCIRP and rhMFG-E8

B1: rhMFG-E8: recombinant human MFG-E8 (protein)
chain: LDICSKNPCHNGGLCEEISQEVRGDVFPSYTCTCLKGYAGNHCETKCVEPLGLENGNIANSQIAASSVRVTFLGLQHWVPELARLNRAGMVNAWTPSSNDDNPWIQVNLLRRMWVTGVVTQGASRLASHEYLKAFKVAYSLNGHEFDFIHDVNKKHKEFVGNWNKNAVHVNLFETPVEAQYVRLYPTSCHTACTLRFELLGCELNGCANPLGLKNNSIPDKQITASSSYKTWGLHLFSWNPSYARLDKQGNFNAWVAGSYGNDQWLQVDLGSSKEVTGIITQGARNFGSVQFVASYKVAYSNDSANWTEYQDPRTGSSKIFPGNWDNHSHKKNLFETPILARYVRILPVAWHNRIALRLELLGC
- Kd: 29 nM
